# Results reported in US20220249679A1 (MITSUBISHI TANABE PHARMA, published 2022).
# Values joined by “and” are separate entries in the source; they are usually repeats but may differ in a detail not shown here. Identical values can stand only once.
# T1: Cynomolgus monkey CD138 on transfected Expi293 cells (cynomolgus monkey, UniProt P18827 23-310 (human entry))
# T1 construct: also called cyno CD138
# T1 chain: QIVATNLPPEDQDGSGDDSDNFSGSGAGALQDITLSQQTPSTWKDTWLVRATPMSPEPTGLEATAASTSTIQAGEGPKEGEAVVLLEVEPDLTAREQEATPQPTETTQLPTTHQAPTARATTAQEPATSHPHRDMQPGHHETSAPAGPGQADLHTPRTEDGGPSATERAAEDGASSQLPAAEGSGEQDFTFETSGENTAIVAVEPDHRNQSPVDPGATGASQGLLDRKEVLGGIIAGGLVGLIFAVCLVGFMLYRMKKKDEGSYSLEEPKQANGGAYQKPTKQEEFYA
# T2: Mouse CD138 (ELISA binding assay, data not shown) (mouse, UniProt P18828 23-255, limits assumed)
# T2 construct: Construct used in the ELISA is not described
# T2 sequence: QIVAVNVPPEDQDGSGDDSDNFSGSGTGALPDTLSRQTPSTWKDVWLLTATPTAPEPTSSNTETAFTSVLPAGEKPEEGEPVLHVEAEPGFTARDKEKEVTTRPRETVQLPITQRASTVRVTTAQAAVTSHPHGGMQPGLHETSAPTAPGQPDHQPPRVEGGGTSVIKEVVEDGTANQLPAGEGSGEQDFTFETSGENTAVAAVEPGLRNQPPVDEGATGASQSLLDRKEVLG
# T3: Human CD138 His (human, UniProt P18827 23-254)
# T3 construct: also called hCD138
# T3 sequence: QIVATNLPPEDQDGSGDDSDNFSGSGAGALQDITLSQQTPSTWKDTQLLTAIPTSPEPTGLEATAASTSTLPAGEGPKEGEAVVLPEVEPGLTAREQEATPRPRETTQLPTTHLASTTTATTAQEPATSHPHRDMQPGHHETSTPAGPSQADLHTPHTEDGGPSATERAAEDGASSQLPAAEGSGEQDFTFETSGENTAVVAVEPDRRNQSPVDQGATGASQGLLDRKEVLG
# Legend:
# [1] = target: T1, Cynomolgus monkey CD138 on transfected …; assay: FACS titration on Expi293 cells transfected with cynomolgus CD138
# Excerpt: Briefly, a vector directing the cell-surface expression of human CD138 or cyno CD138 was transfected in Expi293 cells.
# [2] = target: T2, Mouse CD138 (ELISA binding assay, data …); assay: ELISA binding assay
# [3] = target: T3, Human CD138 His; assay: SPR (BioRad Proteon), CD138 His immobilized, bivalent analyte fit
# Procedure: (§1) Murine IgGs were purified from the hybridoma supernatants and the IgGs were subject to SPR (surface plasmon resonance) for kinetic binding measurements. Human or mouse CD138 His was immobilized on a GLM chip at […] on a BioRad Proteon. […] KDs were measured using bivalent analyte fit.
# [4] = target: T3, Human CD138 His; assay: SPR, summary table
# Procedure: as §1
Binder,binding result [1],binding result [2],Kd [3],koff [3] [s⁻¹],kon [3] [M⁻¹ s⁻¹],Kd [4] [nM]
"13P30A7 hIgG1 (antibody, V domains shown, Chimeric antibody: murine variable regions of F13P30A7 with constant regions of human IgG1, kappa isotype; also called chP30A7; chP30a7) VH: EVQLVESGGGLVQPKGSLKLSCAASGFTFNTYAMNWVRQAPGKGLEWIARIRSKSNNYATYYADSVKDRFTISRDDSQSLLYLQMNNLKTEDTAIFYCVTDYGYVYFDAWGAGTTVTVSS VL: NIIMTQSPKSMAMSVGERVTLSCKASENVGNYVSWYQQKPEQSPKLLIYGASYRYTGVPDRFTGSGSGTDFTLTISSVQAEDLADYHCGQSSRYPLTFGAGTKLELKR",binds,,,,,
"F13P14D3 (antibody, V domains shown, Murine IgG purified from hybridoma supernatant) VH: EVQLVESGGGLVQPKGSLKLSCATSGFTFNTYAMNWVRQAPGKGLEWVARIRSKSNNYATYYVDSVKDRFTISRDDSQSTVHLQMNNLKTEDTAIYYCVTDYGHVYFDVWGAGTTVTVSS VL: NIVMTQSPKSMSMSVGQRVTLSCKASENVGSYVSWYQQKPEQSPKLLIYGASNRNTGVPDRFTGSGSATDFTLTISSVQAEDLADYHCGQSSRYPLTFGGGTKLELKR",,no binding,9.67 nM and 9.7 nM,0.00104,107000,10
"F13P30A7 (antibody, V domains shown, Murine IgG purified from hybridoma supernatant) VH: EVQLVESGGGLVQPKGSLKLSCAASGFTFNTYAMNWVRQAPGKGLEWIARIRSKSNNYATYYADSVKDRFTISRDDSQSLLYLQMNNLKTEDTAIFYCVTDYGYVYFDAWGAGTTVTVSS VL: NIIMTQSPKSMAMSVGERVTLSCKASENVGNYVSWYQQKPEQSPKLLIYGASYRYTGVPDRFTGSGSGTDFTLTISSVQAEDLADYHCGQSSRYPLTFGAGTKLELKR",,no binding,5.32 nM and 5.3 nM,0.00127,238000,5
"F13P18D8 (antibody, V domains shown, Murine IgG purified from hybridoma supernatant) VH: EVQLLESGGGLVQPEGSLKLSCAASGFAFNTYAMNWVRQAPGKGLEWLARIRSKSNNYATYYADSVKDRFTISRDDSQGMLYLQMNNLKTEDTAMYYCVTDYYYVYFDVWGAGTTVTVSS VL: NIVMTQSPKSMSMSVGERVTLSCKASENVGTYVSWYQQKSDQSPKLLIYGASNRYTGVPDRFTGSGSATDFTLTITSVQSEDLADYHCGQSSRYPLTFGAGTKLELKR",,no binding,1.88 nM and 1.9 nM,0.000523,278000,2
